Test results published in paper doi:10.1101/2022.03.30.486377 (bioRxiv, 2022).

B1: C13C9 mAb (antibody, V domains shown)
VH: EVQLVQSGPEVKKPGTSARVSCKASGFTSKNTALQWVRQARGQPLEWMGWIDISNYITNYAQKFRGRLTITWDLSASMAYMELSSLRSEDTAVYYCAAVGKDDDVLTGGNKYFDHWGQGTLVTVSS
VL: SYELTQPPSVSVSPGQTARITCSGDALPKKYAYWYQQKSGQAPVLVIHEDDKRPSGIPGRFSASSSGTTATLTISGAQVEDEADYYCYSTDTNDNHAFGSGTKLTVL
B2: C77G12 mAb (antibody, V domains shown)
VH: EVQLVESGGGVVQPGRSLRISCAVSGFTFGSYAMHWVRQAPGKGLEWVGVMSSDGHNEYYADSVKGRFTISRDNSRNKLYLEMNNLRVDDTAVFYCARGSDYVDDSPPLHYWGQGTLVTVSS
VL: DIQLTQSPSSLSASIGDRVTITCRASQDIANKLAWFQQAPGKAPKSLIYAASRLQSGVPSQFSGSGSGTDFTLTIESLQAGDFATYFCQQYDSFPFTFGPGTKVDVK
B3: VN01H1 mAb (antibody, V domains shown)
VH: EVQLVESGGGLVLPGGSLRLSCSASGFTFSDFSMHWVRQSPGKGLEYVSAITSSGSSTYYPDSVKGRFTISRDNSKNTLYLQMGSLRVEDTAVYWCVKNSDVFRFPHLYFDVWGRGTLVTVSS
VL: not shown
B4: VP12E7 mAb (antibody, V domains shown)
VH: QVQLVQSGGGVVQPGESLRLSCSGSGFTFNNYIMHWVRQAPGQGLDYVSGIGSDGRNTNYGDSVKGRFTISRDNSKDTLYLQMTSLRAEDTAFYYCVKGLDVLRFLDLSTPSGERLDAFDIWGQGTMVTVSS
VL: DIVMTQSPSFLSASVGDRVTITCRASQGISNYLAWYQQKPGKAPHLLIYAASTLQSGVPSRFSGSGSGTEFTLTISSLQPEDFATYYCQQLNSYPLFTFGPGTKVDIE
B5: C13B8 mAb (antibody, V domains shown)
VH: QVQLQESGPGLVQPSQTLTLTCTVSGDSISNEDYHWTWIRQHPGKGLEWMGYLQYSGNTNYNPSLKSRMTISVDTSKNQFSLRLNSVTAADTAVYFCATSIVLTGMSNKIQPFDYWGQGTLVTVSS
VL: SYELTQPPSVSVSPGQMARITCSGEALPKKYAYWYQQKGGQFPVLVIYKDTERPSGIPERFSGSSSGTIVTLTISGVQPEDEADYYCLSADTSGTWVFGGGTKLTVL
B6: C13B8 Fab (Fab, V domains shown)
VH: B5 VH
VL: B5 VL
B7: C13C9 Fab (Fab, V domains shown)
VH: B1 VH
VL: B1 VL
B8: C77G12 Fab (Fab, V domains shown)
VH: B2 VH
VL: B2 VL
B9: VN01H1 Fab (Fab, V domains shown)
VH: B3 VH
VL: not shown
B10: VP12E7 Fab (Fab, V domains shown)
VH: B4 VH
VL: B4 VL

Each binder was assayed against SARS-CoV-2 (2019-nCoV) S protein (S1+S2 ECD) (SARS-CoV-2 (2019-nCoV), UniProt P0DTC2) (assay: ELISA).
B1: binds. B2: binds. B3: binds. B4: binds. B5: binds.

The binders below were run against MERS-CoV S protein (S1+S2 ECD) (MERS-CoV; strain  in paper, …, UniProt K0BRG7) (assay: ELISA).
B1: binds. B2: binds. B3: binds. B4: binds. B5: binds.

What follows are binders tested against HCoV-OC43 S protein (S1+S2 ECD) (Human coronavirus OC43 (HCoV-OC43)., UniProt P36334) (assay: ELISA).
B1: binds. B2: binds. B3: binds. B4: binds. B5: binds.

These binders were tested against HCoV-HKU1 (isolate N5) S protein (S1+S2 ECD) (Human coronavirus HKU1 (isolate N5) …, UniProt Q0ZME7) (assay: ELISA).
B1: binds. B2: binds. B3: binds. B4: binds. B5: binds.

Each binder was assayed against HCoV-NL63 S protein (S1+S2 ECD) (HCoV-NL63, strain not named (stand-in: …, UniProt Q6Q1S2)) (assay: ELISA).
Sequence of HCoV-NL63 S protein (S1+S2 ECD) (HCoV-NL63, strain not named (Q6Q1S2 whole entry, looked up, the tested form may be a part): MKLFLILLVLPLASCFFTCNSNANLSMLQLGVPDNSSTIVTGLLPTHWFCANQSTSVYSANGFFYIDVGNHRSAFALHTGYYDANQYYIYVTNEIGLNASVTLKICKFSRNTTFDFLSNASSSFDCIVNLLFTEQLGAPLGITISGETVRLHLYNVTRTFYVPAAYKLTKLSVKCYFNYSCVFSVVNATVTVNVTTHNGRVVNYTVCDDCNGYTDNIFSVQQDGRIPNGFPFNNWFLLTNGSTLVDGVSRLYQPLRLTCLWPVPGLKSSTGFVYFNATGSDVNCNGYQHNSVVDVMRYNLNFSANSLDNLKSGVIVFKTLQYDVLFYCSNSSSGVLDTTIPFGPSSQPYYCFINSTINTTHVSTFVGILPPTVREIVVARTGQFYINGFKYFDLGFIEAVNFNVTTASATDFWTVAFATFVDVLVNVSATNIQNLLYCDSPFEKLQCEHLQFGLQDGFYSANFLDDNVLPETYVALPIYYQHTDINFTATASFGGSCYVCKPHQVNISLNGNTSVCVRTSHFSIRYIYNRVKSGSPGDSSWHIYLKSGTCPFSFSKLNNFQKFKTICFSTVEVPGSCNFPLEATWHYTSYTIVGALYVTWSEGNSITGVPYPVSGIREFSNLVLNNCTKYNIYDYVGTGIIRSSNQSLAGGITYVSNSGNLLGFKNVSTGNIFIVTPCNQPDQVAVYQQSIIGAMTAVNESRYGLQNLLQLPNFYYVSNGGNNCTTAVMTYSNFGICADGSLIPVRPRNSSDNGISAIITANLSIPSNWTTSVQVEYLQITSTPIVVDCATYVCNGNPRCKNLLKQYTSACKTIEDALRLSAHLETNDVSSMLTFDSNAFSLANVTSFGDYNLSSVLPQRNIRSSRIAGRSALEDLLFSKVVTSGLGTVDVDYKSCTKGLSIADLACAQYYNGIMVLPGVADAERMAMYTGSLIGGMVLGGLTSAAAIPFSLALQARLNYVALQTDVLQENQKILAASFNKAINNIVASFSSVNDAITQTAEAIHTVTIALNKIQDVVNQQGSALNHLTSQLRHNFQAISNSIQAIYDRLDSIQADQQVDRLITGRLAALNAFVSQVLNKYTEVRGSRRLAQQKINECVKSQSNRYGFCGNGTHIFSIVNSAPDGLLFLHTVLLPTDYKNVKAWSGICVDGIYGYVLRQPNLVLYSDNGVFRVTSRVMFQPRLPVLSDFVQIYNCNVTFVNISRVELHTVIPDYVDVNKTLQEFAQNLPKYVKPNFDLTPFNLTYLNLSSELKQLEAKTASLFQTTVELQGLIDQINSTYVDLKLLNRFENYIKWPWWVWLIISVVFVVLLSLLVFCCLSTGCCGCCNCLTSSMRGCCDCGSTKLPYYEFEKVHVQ
B1: binds. B2: binds. B3: binds. B4: binds. B5: binds.

The binders below were run against HCoV-229E S protein (S1+S2 ECD) (HCoV-229E, strain not named (stand-in: …, UniProt P15423)) (assay: ELISA).
Sequence of HCoV-229E S protein (S1+S2 ECD) (HCoV-229E, strain not named (P15423 whole entry, looked up, the tested form may be a part): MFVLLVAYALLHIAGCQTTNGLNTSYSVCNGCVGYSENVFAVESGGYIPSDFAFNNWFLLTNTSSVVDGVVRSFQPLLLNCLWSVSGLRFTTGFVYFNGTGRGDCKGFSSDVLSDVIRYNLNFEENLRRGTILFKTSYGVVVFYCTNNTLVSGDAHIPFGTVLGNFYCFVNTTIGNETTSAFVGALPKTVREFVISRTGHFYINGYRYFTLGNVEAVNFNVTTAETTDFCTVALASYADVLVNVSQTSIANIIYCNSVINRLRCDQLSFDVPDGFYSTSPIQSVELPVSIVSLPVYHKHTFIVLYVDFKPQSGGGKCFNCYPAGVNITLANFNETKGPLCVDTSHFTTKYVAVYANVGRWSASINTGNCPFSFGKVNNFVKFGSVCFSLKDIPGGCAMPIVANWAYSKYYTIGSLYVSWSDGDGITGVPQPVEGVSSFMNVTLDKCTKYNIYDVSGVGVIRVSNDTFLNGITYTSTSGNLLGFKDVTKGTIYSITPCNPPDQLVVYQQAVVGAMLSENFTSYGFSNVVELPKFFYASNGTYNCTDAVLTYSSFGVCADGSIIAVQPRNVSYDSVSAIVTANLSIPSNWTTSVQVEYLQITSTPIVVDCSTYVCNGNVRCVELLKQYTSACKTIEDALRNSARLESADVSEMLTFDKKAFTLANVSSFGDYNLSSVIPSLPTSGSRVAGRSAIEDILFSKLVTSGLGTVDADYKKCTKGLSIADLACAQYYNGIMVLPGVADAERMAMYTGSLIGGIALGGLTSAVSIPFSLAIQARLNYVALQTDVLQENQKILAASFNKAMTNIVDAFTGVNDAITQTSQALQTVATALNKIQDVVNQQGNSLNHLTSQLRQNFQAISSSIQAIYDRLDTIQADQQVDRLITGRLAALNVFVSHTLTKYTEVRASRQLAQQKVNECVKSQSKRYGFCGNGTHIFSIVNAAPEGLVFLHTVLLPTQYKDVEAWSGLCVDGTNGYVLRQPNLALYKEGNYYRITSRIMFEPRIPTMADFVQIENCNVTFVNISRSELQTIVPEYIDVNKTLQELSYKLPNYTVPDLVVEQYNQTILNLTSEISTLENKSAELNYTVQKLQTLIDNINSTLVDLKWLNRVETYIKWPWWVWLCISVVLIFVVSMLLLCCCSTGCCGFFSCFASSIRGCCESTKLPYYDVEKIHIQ
B1: binds. B2: binds. B3: binds. B4: binds. B5: binds.

Biological target: T1, SARS-CoV-2 fusion peptide K811[…]825 (SARS-CoV-2)
T1 chain: KPSKRSFIEDLLFNK
Experiment: ELISA
B1: binds. B2: binds. B3: binds. B4: binds. B5: binds.

Biological target: T1, SARS-CoV-2 fusion peptide K811[…]825
Experiment: crystal structure
B6: binds. B7: binds. B8: binds. B9: binds. B10: binds.

The binders below were run against SARS-CoV-2 Wuhan-Hu-1 S on 293T cells (SARS-CoV-2 Wuhan-Hu-1, UniProt P0DTC2) (assay: flow cytometry on cells).
B1: binds. B2: binds. B3: binds. B4: binds. B5: binds.

Each binder was assayed against NL63 S on 293T cells (Human coronavirus NL63 (HCoV-NL63)., UniProt Q6Q1S2) (assay: flow cytometry on cells).
Sequence of NL63 S on 293T cells (Q6Q1S2 19-1356): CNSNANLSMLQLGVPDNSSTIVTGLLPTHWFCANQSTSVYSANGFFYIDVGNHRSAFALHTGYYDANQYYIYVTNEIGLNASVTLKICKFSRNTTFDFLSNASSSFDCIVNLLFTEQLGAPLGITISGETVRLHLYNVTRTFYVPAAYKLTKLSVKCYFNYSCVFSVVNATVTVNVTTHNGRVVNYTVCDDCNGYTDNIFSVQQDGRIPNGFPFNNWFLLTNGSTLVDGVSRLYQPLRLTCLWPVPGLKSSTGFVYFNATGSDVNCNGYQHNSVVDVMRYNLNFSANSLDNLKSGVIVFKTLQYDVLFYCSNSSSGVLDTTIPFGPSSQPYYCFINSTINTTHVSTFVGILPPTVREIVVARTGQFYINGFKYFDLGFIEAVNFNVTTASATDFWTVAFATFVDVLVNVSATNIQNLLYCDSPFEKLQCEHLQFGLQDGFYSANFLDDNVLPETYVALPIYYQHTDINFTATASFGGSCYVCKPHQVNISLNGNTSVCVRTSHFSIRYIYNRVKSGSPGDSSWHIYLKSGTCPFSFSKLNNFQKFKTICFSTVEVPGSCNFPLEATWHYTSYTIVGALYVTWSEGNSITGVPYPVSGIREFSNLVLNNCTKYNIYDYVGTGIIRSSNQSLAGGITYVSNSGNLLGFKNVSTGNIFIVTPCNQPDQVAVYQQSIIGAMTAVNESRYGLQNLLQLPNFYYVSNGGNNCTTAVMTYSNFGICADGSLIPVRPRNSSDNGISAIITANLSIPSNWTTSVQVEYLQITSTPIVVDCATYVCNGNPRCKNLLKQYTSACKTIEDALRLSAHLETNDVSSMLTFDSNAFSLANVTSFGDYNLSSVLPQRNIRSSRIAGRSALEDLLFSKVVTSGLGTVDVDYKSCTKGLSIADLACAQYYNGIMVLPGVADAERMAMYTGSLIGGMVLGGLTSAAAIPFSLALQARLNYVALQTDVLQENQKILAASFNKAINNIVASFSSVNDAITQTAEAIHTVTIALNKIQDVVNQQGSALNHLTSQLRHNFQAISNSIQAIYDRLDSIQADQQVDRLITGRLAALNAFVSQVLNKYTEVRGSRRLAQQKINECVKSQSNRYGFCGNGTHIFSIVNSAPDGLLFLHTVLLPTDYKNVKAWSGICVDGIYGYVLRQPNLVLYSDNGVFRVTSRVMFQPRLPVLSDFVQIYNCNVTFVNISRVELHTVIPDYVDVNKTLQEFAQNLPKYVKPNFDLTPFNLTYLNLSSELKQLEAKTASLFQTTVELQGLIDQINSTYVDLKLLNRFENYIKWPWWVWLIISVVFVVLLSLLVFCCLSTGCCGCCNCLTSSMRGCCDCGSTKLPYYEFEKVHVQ
B1: binds. B2: binds. B3: binds. B4: binds. B5: binds.

Each binder was assayed against 229E S on 293T cells (Human coronavirus 229E (HCoV-229E)., UniProt P15423) (assay: flow cytometry on cells).
Sequence of 229E S on 293T cells (P15423 16-1173): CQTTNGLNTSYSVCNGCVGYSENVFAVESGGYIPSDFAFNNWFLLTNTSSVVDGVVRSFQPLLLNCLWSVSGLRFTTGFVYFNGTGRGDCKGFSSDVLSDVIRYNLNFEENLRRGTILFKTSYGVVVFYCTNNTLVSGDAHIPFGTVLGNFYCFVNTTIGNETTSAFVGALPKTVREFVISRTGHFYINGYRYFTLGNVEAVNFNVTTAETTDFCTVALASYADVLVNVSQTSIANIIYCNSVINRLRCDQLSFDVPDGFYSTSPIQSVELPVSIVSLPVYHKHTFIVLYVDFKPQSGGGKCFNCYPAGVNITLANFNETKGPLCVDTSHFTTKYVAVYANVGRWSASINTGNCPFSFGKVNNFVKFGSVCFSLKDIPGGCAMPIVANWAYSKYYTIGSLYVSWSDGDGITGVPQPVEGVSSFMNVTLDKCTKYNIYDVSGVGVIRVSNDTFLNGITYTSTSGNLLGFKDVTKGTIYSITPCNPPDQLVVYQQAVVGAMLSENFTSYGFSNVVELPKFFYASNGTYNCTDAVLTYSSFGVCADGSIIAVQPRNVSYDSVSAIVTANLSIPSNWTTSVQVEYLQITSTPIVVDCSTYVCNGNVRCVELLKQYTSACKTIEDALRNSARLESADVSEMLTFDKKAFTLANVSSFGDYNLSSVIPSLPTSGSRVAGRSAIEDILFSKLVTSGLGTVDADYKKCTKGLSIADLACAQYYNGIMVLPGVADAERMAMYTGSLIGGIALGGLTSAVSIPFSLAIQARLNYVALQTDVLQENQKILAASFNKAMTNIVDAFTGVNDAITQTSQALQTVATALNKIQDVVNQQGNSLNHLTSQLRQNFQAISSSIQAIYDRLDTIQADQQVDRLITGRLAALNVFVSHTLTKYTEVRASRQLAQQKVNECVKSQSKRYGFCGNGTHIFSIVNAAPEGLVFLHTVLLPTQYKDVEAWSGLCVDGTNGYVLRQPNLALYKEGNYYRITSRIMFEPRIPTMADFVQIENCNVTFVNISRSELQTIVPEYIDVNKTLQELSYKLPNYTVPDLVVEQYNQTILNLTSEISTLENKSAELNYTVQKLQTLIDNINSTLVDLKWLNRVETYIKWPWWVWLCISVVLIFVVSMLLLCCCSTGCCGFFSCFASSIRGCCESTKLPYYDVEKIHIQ
B1: binds. B2: binds. B3: binds. B4: binds. B5: binds.
